Experimental data from patent US20250161408A1, “PEPTIDIC INHIBITORS OF AMYLOID SELF- AND CROSS-ASSEMBLY” (published 2025).
Non-standard residues stand in square brackets, D forms with d. NMeF = CN[C@@H](Cc1ccccc1)C(=O)O; NMeL = CN[C@@H](CC(C)C)C(=O)O; NMeV = CN[C@H](C(=O)O)C(C)C; Nle = CCCC[C@H](N)C(=O)O

T1: Fluos-Nle3-VF (N-terminal 5,6-carboxyfluorescein; X = norleucine (Nle); N-methyl on Val18 and Phe20)
T1 peptide: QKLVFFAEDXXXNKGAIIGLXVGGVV

T2: Fluos-IAPP (human, UniProt P10997, N-terminal fluorescein)
T2 peptide: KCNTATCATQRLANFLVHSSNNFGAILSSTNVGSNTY

B1: Nle3-VF (peptide)
peptide: H-QKL[NMeV]F[NMeF]AED[Nle][Nle][Nle]NKGAIIGL[Nle]VGGVV-OH
SMILES: CCCC[C@H](NC(=O)[C@H](CC(=O)O)NC(=O)[C@H](CCC(=O)O)NC(=O)[C@H](C)NC(=O)[C@H](Cc1ccccc1)N(C)C(=O)[C@H](Cc1ccccc1)NC(=O)[C@H](C(C)C)N(C)C(=O)[C@H](CC(C)C)NC(=O)[C@H](CCCCN)NC(=O)[C@@H](N)CCC(N)=O)C(=O)N[C@@H](CCCC)C(=O)N[C@@H](CCCC)C(=O)N[C@@H](CC(N)=O)C(=O)N[C@@H](CCCCN)C(=O)NCC(=O)N[C@@H](C)C(=O)N[C@H](C(=O)N[C@H](C(=O)NCC(=O)N[C@@H](CC(C)C)C(=O)N[C@@H](CCCC)C(=O)N[C@H](C(=O)NCC(=O)NCC(=O)N[C@H](C(=O)N[C@H](C(=O)O)C(C)C)C(C)C)C(C)C)[C@@H](C)CC)[C@@H](C)CC
B2: L3-LF (peptide)
peptide: H-QK[NMeL]V[NMeF]FAEDLLLNKGAIIGL[Nle]VGGVV-OH
SMILES: CCCC[C@H](NC(=O)[C@H](CC(C)C)NC(=O)CNC(=O)[C@@H](NC(=O)[C@@H](NC(=O)[C@H](C)NC(=O)CNC(=O)[C@H](CCCCN)NC(=O)[C@H](CC(N)=O)NC(=O)[C@H](CC(C)C)NC(=O)[C@H](CC(C)C)NC(=O)[C@H](CC(C)C)NC(=O)[C@H](CC(=O)O)NC(=O)[C@H](CCC(=O)O)NC(=O)[C@H](C)NC(=O)[C@H](Cc1ccccc1)NC(=O)[C@H](Cc1ccccc1)N(C)C(=O)[C@@H](NC(=O)[C@H](CC(C)C)N(C)C(=O)[C@H](CCCCN)NC(=O)[C@@H](N)CCC(N)=O)C(C)C)[C@@H](C)CC)[C@@H](C)CC)C(=O)N[C@H](C(=O)NCC(=O)NCC(=O)N[C@H](C(=O)N[C@H](C(=O)O)C(C)C)C(C)C)C(C)C
B3: F3-VF (peptide)
peptide: H-QKL[NMeV]F[NMeF]AEDFFFNKGAIIGL[Nle]VGGVV-OH
SMILES: CCCC[C@H](NC(=O)[C@H](CC(C)C)NC(=O)CNC(=O)[C@@H](NC(=O)[C@@H](NC(=O)[C@H](C)NC(=O)CNC(=O)[C@H](CCCCN)NC(=O)[C@H](CC(N)=O)NC(=O)[C@H](Cc1ccccc1)NC(=O)[C@H](Cc1ccccc1)NC(=O)[C@H](Cc1ccccc1)NC(=O)[C@H](CC(=O)O)NC(=O)[C@H](CCC(=O)O)NC(=O)[C@H](C)NC(=O)[C@H](Cc1ccccc1)N(C)C(=O)[C@H](Cc1ccccc1)NC(=O)[C@H](C(C)C)N(C)C(=O)[C@H](CC(C)C)NC(=O)[C@H](CCCCN)NC(=O)[C@@H](N)CCC(N)=O)[C@@H](C)CC)[C@@H](C)CC)C(=O)N[C@H](C(=O)NCC(=O)NCC(=O)N[C@H](C(=O)N[C@H](C(=O)O)C(C)C)C(C)C)C(C)C
B4: F3-LF (peptide)
peptide: H-QK[NMeL]V[NMeF]FAEDFFFNKGAIIGL[Nle]VGGVV-OH
SMILES: CCCC[C@H](NC(=O)[C@H](CC(C)C)NC(=O)CNC(=O)[C@@H](NC(=O)[C@@H](NC(=O)[C@H](C)NC(=O)CNC(=O)[C@H](CCCCN)NC(=O)[C@H](CC(N)=O)NC(=O)[C@H](Cc1ccccc1)NC(=O)[C@H](Cc1ccccc1)NC(=O)[C@H](Cc1ccccc1)NC(=O)[C@H](CC(=O)O)NC(=O)[C@H](CCC(=O)O)NC(=O)[C@H](C)NC(=O)[C@H](Cc1ccccc1)NC(=O)[C@H](Cc1ccccc1)N(C)C(=O)[C@@H](NC(=O)[C@H](CC(C)C)N(C)C(=O)[C@H](CCCCN)NC(=O)[C@@H](N)CCC(N)=O)C(C)C)[C@@H](C)CC)[C@@H](C)CC)C(=O)N[C@H](C(=O)NCC(=O)NCC(=O)N[C@H](C(=O)N[C@H](C(=O)O)C(C)C)C(C)C)C(C)C
B5: Nle3-LF (peptide)
peptide: H-QK[NMeL]V[NMeF]FAED[Nle][Nle][Nle]NKGAIIGL[Nle]VGGVV-OH
SMILES: CCCC[C@H](NC(=O)[C@H](CC(=O)O)NC(=O)[C@H](CCC(=O)O)NC(=O)[C@H](C)NC(=O)[C@H](Cc1ccccc1)NC(=O)[C@H](Cc1ccccc1)N(C)C(=O)[C@@H](NC(=O)[C@H](CC(C)C)N(C)C(=O)[C@H](CCCCN)NC(=O)[C@@H](N)CCC(N)=O)C(C)C)C(=O)N[C@@H](CCCC)C(=O)N[C@@H](CCCC)C(=O)N[C@@H](CC(N)=O)C(=O)N[C@@H](CCCCN)C(=O)NCC(=O)N[C@@H](C)C(=O)N[C@H](C(=O)N[C@H](C(=O)NCC(=O)N[C@@H](CC(C)C)C(=O)N[C@@H](CCCC)C(=O)N[C@H](C(=O)NCC(=O)NCC(=O)N[C@H](C(=O)N[C@H](C(=O)O)C(C)C)C(C)C)C(C)C)[C@@H](C)CC)[C@@H](C)CC
B6: L3-VF (peptide)
peptide: H-QKL[NMeV]F[NMeF]AEDLLLNKGAIIGL[Nle]VGGVV-OH
SMILES: CCCC[C@H](NC(=O)[C@H](CC(C)C)NC(=O)CNC(=O)[C@@H](NC(=O)[C@@H](NC(=O)[C@H](C)NC(=O)CNC(=O)[C@H](CCCCN)NC(=O)[C@H](CC(N)=O)NC(=O)[C@H](CC(C)C)NC(=O)[C@H](CC(C)C)NC(=O)[C@H](CC(C)C)NC(=O)[C@H](CC(=O)O)NC(=O)[C@H](CCC(=O)O)NC(=O)[C@H](C)NC(=O)[C@H](Cc1ccccc1)N(C)C(=O)[C@H](Cc1ccccc1)NC(=O)[C@H](C(C)C)N(C)C(=O)[C@H](CC(C)C)NC(=O)[C@H](CCCCN)NC(=O)[C@@H](N)CCC(N)=O)[C@@H](C)CC)[C@@H](C)CC)C(=O)N[C@H](C(=O)NCC(=O)NCC(=O)N[C@H](C(=O)N[C@H](C(=O)O)C(C)C)C(C)C)C(C)C

Assays:
FITC-Aβ42 = FITC-Aβ42 (Homo sapiens (Human), UniProt P05067, N-terminal fluorescein-isothiocyanate-β-Ala); assay: fluorescence spectroscopic titration of FITC-Aβ42 (5 nM, pH 7.4) with the ACM; app. KD
Procedure: (§1) Fluorescence spectroscopic studies were performed with a Jasco FP-6500 fluorescence spectrophotometer. Briefly, excitation was at 492 nm and spectra were measured between 500 and 600 nm. All titrations were performed in freshly made solutions of synthetic N-terminal fluorescently labeled peptide (5 nM) and various amounts of unlabeled peptide in 10 mM sodium phosphate buffer, pH 7.4 (1% HFIP) within 2-5 min following solution preparation. […] Apparent binding affinities (app. KDs) were estimated by using 1/1 binding models. However, due to the high self-assembly propensities of involved peptides more complex models might also apply.

Fluos-Nle3-VF = molecular target: T1, Fluos-Nle3-VF; assay: self-assembly: fluorescence spectroscopic titration of Fluos-Nle3-VF (5 nM) with Nle3-VF; app. KD
Procedure: as §1, with “apply. […] KDs are means (±SD) from three binding curves derived from three independent titration assays.” for “apply.”

Fluos-IAPP = molecular target: T2, Fluos-IAPP; assay: fluorescence spectroscopic titration of Fluos-IAPP (5 nM, pH 7.4) with the ACM; app. KD
Procedure: On the right side of each figure panel, the corresponding binding curves are shown; data are means±SD from 3 binding curves. […] KDs (means±SD from 3 binding curves) are in Table 1.
as §1, with “apply. […] KDs are means (±SD) from three binding curves derived from three independent titration assays.” for “apply.”

| Binder | Kd (FITC-Aβ42) [nM] | Kd (Fluos-Nle3-VF) [nM] | Kd (Fluos-IAPP) [nM] |
| --- | --- | --- | --- |
| B1 | 14.5 | 51.9 | 69.5 |
| B2 | 2.6 |  | 143 |
| B3 | 161 |  | 15 |
| B4 | 431 |  | 37.6 |
| B5 | 11.1 |  | 55.4 |
| B6 | 38 |  | 77.3 |
